In CN116478288A one finds MFI data, which are given here for one substance.

For assay [1], the target named is 人源CD47 (on cells: hCD47-overexpressing CHO-K1; Raji) (human) (UniProt Q08722). The experiment in a line: flow cytometry, control human IgG on CHO-K1 overexpressing human CD47 (PBS background 139.0). On the technique in general: A flow cytometer gives signals particle by particle.
The target of assay [2] is 食蟹猴CD47 (on overexpressing CHO-K1 cells) (cynomolgus monkey). The experiment in a line: flow cytometry, control human IgG on CHO-K1 overexpressing cynomolgus CD47 (PBS background 92.8).

Chain of UniProt Q08722 (Q08722 19-323): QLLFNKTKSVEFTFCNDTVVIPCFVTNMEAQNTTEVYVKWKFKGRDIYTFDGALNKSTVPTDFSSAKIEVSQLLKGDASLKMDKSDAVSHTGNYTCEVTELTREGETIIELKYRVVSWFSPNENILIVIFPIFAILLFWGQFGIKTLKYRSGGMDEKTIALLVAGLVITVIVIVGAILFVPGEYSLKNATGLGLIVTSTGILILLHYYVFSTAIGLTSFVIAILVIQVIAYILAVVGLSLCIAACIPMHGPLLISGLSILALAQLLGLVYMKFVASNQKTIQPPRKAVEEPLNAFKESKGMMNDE

For human IgG (antibody), the MFI is 101 MFI in assay [1] and 71 MFI in assay [2].
